Measured values as given in US20120178139A1 (published 2012).
One block for each binder: values may come before it.

Tests used:
[1] = molecular target: T1, mouse glycophorin-A on mouse erythrocytes (mouse, UniProt P14220 1-168); assay: equilibrium binding to mouse erythrocytes, flow cytometry, one-site binding fit
[2] = molecular target: T1, mouse glycophorin-A on mouse …; assay: in vivo, geometric mean fluorescence of circulating erythrocytes by flow cytometry, one-phase exponential decay
Description: Consistent with glycophorin-A association, ERY1-OVA bound to erythrocytes (CD45⁻) but not to leukocytes (CD45⁺). ERY1-OVA binding was unbiased as to the apoptotic state of the erythrocytes, binding strongly to both annexin-V⁺ and annexin-V⁻ CD45⁻ populations (FIG. 9b).
150 μg of ERY1-OVA or OVA in 0.9% saline (B. Braun) in a volume of 100 μL was injected intravenously into the tail of 8-12 week old female C57BL/6 mice while under anesthesia with isoflurane. Care was taken to ensure mice were kept at 37 C with a heating pad during experimentation. At predetermined time points, 5 μL of blood was taken from a small incision on the tail, diluted 100-fold into 10 mM EDTA in PBS, washed three times with PBS with 10 mg/mL BSA, and analyzed for OVA content by flow cytometry and ELISA. OVA was quantified by sandwich ELISA, using a mouse monoclonal anti-OVA antibody (Sigma) for capture, a polyclonal rabbit anti-OVA antibody (AbD SEROTEC) for detection, a goat anti-rabbit-IgG-HRP antibody (BioRad) for final detection, followed by TMB substrate (GE Life Sciences). Hematological characterization was performed on an ADVIVA 2120 Hematology System (Siemens). Erythrocyte-bound ERY1-GST was detected by incubating labeled cells with goat anti-GST (GE Healthcare Life Sciences), followed by incubation with AlexaFluor488 donkey anti-goat (Invitrogen), and analyzed by flow cytometry. […]

[3] = molecular target: T1, mouse glycophorin-A on mouse …; assay: photo-crosslinking of biotinylated peptide to whole mouse erythrocytes, streptavidin pull-down and streptavidin Western blot
Description: When whole erythrocytes were incubated with ERY1 peptide functionalized with biotin and a photoactivatable crosslinker, a single 28 kDa protein was conjugated with the peptide-biotin complex, as detected by a streptavidin Western blot (FIG. 2A). The reaction lysate was extensively washed and purified using streptavidin magnetic beads to ensure no unlabeled proteins from the erythrocyte lysate remained. […] The mismatch peptide, […] (SEQ ID NO:2), was designed to contain the same amino acid residues as ERY1, and to match its hydrophobicity topography. […] Anti-GYPA Western blotting of the same purified samples from the crosslinking reaction confirmed that the candidate biotinylated protein was indeed GYPA (FIG. 2B).
In brief, peptides were solubilized in PBS/DMF and reacted with 1.05 equivalents of Mts-atf-biotin overnight at 4° C. Following clarification of the reaction by centrifugation, biotinylated peptide was incubated with erythrocytes at in PBSA-50 for 1 h at 37° C., cells were washed twice in fresh PBS, and were UV irradiated at 365 nm for 8 min at room temperature. Cells were lysed by sonication and the lysate was purified using streptavidin-coated magnetic beads (Invitrogen). The eluate was run on an SDS-PAGE and transferred to a PVDF membrane, and immunoblotted with streptavidin-HRP(R&D Systems) or anti-mouse GYPA.

- Kd [1]: 6.2 nM
- cell-surface half-life [2]: 17.2 h
B1: ERY1-OVA (ovalbumin chemically conjugated with ERY1 peptide through SMCC) (other)
chain: GSIGAASMEFCFDVFKELKVHHANENIFYCPIAIMSALAMVYLGAKDSTRTQINKVVRFDKLPGFGDSIEAQCGTSVNVHSSLRDILNQITKPNDVYSFSLASRLYAEERYPILPEYLQCVKELYRGGLEPINFQTAADQARELINSWVESQTNGIIRNVLQPSSVDSQTAMVLVNAIVFKGLWEKAFKDEDTQAMPFRVTEQESKPVQMMYQIGLFRVASMASEKMKILELPFASGTMSMLVLLPDEVSGLEQLESIINFEKLTEWTSSNVMEERKIKVYLPRMKMEEKYNLTSVLMAMGITDVFSSSANLSGISSAESLKISQAVHAAHAEINEAGREVVGSAEAGVDAASVSEEFRADHPFLFCIKHIATNAVLFFGRCVSP
peptide: WMVLPWLPGTLDGGSGCRG
modifications: C-terminal amide; cysteine side chain conjugated via SMCC to lysines of OVA; lysine side chains carry SMCC linked to the cysteine of the ERY1 peptide
notes: also called ERY1-conjugated antigen

- binding result [3]: no binding
Binder: H-PLLTVGMDLWPWGGSGCRG-NH2 (not fully specified (residue 17); also: conjugated to Mts-Atf-biotin, Same amino acids as ERY1, scrambled) [mismatch peptide, soluble, biotinylated (H2N-PLLTVGMDLWPWGGSGCRG-CONH2 conjugated to Mts-Atf-biotin)]
